Results: IntAct's records for PubMed 26481812

B1: C-type mannose receptor 2 (Homo sapiens), Q9UBG0 (parent)
chain: MGPGRPAPAPWPRHLLRCVLLLGCLHLGRPGAPGDAALPEPNVFLIFSHGLQGCLEAQGGQVRVTPACNTSLPAQRWKWVSRNRLFNLGTMQCLGTGWPGTNTTASLGMYECDREALNLRWHCRTLGDQLSLLLGARTSNISKPGTLERGDQTRSGQWRIYGSEEDLCALPYHEVYTIQGNSHGKPCTIPFKYDNQWFHGCTSTGREDGHLWCATTQDYGKDERWGFCPIKSNDCETFWDKDQLTDSCYQFNFQSTLSWREAWASCEQQGADLLSITEIHEQTYINGLLTGYSSTLWIGLNDLDTSGGWQWSDNSPLKYLNWESDQPDNPSEENCGVIRTESSGGWQNRDCSIALPYVCKKKPNATAEPTPPDRWANVKVECEPSWQPFQGHCYRLQAEKRSWQESKKACLRGGGDLVSIHSMAELEFITKQIKQEVEELWIGLNDLKLQMNFEWSDGSLVSFTHWHPFEPNNFRDSLEDCVTIWGPEGRWNDSPCNQSLPSICKKAGQLSQGAAEEDHGCRKGWTWHSPSCYWLGEDQVTYSEARRLCTDHGSQLVTITNRFEQAFVSSLIYNWEGEYFWTALQDLNSTGSFFWLSGDEVMYTHWNRDQPGYSRGGCVALATGSAMGLWEVKNCTSFRARYICRQSLGTPVTPELPGPDPTPSLTGSCPQGWASDTKLRYCYKVFSSERLQDKKSWVQAQGACQELGAQLLSLASYEEEHFVANMLNKIFGESEPEIHEQHWFWIGLNRRDPRGGQSWRWSDGVGFSYHNFDRSRHDDDDIRGCAVLDLASLQWVAMQCDTQLDWICKIPRGTDVREPDDSPQGRREWLRFQEAEYKFFEHHSTWAQAQRICTWFQAELTSVHSQAELDFLSHNLQKFSRAQEQHWWIGLHTSESDGRFRWTDGSIINFISWAPGKPRPVGKDKKCVYMTASREDWGDQRCLTALPYICKRSNVTKETQPPDLPTTALGGCPSDWIQFLNKCFQVQGQEPQSRVKWSEAQFSCEQQEAQLVTITNPLEQAFITASLPNVTFDLWIGLHASQRDFQWVEQEPLMYANWAPGEPSGPSPAPSGNKPTSCAVVLHSPSAHFTGRWDDRSCTEETHGFICQKGTDPSLSPSPAALPPAPGTELSYLNGTFRLLQKPLRWHDALLLCESRNASLAYVPDPYTQAFLTQAARGLRTPLWIGLAGEEGSRRYSWVSEEPLNYVGWQDGEPQQPGGCTYVDVDGAWRTTSCDTKLQGAVCGVSSGPPPPRRISYHGSCPQGLADSAWIPFREHCYSFHMELLLGHKEARQRCQRAGGAVLSILDEMENVFVWEHLQSYEGQSRGAWLGMNFNPKGGTLVWQDNTAVNYSNWGPPGLGPSMLSHNSCYWIQSNSGLWRPGACTNITMGVVCKLPRAEQSSFSPSALPENPAALVVVLMAVLLLLALLTAALILYRRRQSIERGAFEGARYSRSSSSPTEATEKNILVSDMEMNEQQE

Variants of: B1
Conditions: with co1a1_rat Col1a1, P02454
Chain of co1a1_rat Col1a1, P02454 (P02454 whole entry): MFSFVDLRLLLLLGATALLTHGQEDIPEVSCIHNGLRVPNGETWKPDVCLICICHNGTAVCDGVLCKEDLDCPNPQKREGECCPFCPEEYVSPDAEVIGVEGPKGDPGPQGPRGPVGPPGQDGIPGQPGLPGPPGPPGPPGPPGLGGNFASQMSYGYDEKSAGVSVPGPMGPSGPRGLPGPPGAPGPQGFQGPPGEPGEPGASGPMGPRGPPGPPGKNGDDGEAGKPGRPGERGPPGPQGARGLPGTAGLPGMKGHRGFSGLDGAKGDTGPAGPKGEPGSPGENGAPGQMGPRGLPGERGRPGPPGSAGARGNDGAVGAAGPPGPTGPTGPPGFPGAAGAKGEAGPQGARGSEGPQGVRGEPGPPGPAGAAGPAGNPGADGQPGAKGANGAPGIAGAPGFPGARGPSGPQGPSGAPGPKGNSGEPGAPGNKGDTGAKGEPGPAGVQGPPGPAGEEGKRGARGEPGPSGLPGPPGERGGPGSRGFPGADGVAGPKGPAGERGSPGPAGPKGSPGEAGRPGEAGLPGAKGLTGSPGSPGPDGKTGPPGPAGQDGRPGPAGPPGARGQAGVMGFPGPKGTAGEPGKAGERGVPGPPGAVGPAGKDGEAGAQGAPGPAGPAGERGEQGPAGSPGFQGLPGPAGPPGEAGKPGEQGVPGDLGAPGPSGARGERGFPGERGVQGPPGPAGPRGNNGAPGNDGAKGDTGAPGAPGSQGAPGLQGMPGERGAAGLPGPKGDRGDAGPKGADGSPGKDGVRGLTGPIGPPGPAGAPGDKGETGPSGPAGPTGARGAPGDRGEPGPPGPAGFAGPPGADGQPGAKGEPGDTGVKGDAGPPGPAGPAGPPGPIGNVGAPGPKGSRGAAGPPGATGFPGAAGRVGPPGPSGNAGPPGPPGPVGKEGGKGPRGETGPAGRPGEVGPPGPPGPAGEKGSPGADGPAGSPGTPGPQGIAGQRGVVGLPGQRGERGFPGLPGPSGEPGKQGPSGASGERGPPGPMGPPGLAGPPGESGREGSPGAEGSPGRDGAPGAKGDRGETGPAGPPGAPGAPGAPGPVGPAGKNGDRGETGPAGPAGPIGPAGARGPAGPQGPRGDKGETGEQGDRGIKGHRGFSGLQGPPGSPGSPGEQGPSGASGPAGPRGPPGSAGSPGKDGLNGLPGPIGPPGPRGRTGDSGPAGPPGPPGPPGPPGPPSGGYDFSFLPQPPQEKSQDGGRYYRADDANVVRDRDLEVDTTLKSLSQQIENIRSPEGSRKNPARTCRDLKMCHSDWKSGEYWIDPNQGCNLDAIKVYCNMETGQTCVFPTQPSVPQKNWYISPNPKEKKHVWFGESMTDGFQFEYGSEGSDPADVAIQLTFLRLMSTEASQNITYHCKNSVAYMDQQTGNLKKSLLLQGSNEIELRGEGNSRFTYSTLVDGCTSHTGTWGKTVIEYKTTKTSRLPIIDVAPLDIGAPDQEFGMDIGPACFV

| effect of a mutation on the interaction | Variant |
| --- | --- |
| disrupting interaction strength | Y193A |
| decreasing interaction strength | Y292N;S294T |
| disrupting interaction strength | Y219A |
| disrupting interaction strength | Q179N;N181T |
| disrupting interaction strength | R206A;D208A |
